Key:
GP5 peptide = biological target: T1, GP5 peptide (human, N-terminal biotin); test: peptides bound to plates (data not shown)
T1 construct: residues 42 to 61 of the human glycophorin A extracellular domain
T1 peptide: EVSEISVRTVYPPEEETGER

[1] = biological target: T2, human glycophorin A in the red blood cell membrane (human, UniProt P02724 20-150); test: FACS, IgG titrated on human GPA expressing CHO-QMCF1 cells (17d post txn)
T2 construct: whole, on cells; used for intact RBC, isolated RBC membranes and transfected cells; the assay field tells which; also called GPA; hGPA
T2 sequence (looked up): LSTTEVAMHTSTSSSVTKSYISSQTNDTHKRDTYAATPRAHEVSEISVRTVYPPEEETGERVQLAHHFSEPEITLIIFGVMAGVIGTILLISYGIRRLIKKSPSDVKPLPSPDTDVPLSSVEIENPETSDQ

[2] = biological target: T3, purified human glycophorin A protein (Sigma, cat # G5017) (human, UniProt P02724 20-150); test: ELISA, hGPA
T3 construct: mature; also called Sigma hGPA; Sigma GPA
T3 sequence (looked up): T2 sequence (looked up)

[3] = biological target: T2, human glycophorin A in the red blood …; test: FACS, RBC Hu02
Procedure: (§1) The binding of the humanized variants to intact red blood cells (RBC) from humans (Hu01 to 03; 3 individuals), Rhesus monkey (Rh01 to 03; 3 individuals) and Cynomolgus monkey (Cy01 to 02; 2 individuals) was measured by fluorescence activated cell sorting (FACS).

[4] = biological target: T4, Rhesus monkey glycophorin A on Rhesus monkey red blood cells (Rhesus monkey, UniProt A0A1D5Q349 20-150); test: FACS, RBC Rh03
T4 construct: whole, on cells; also called Rhesus RBC; monkey GPA
T4 sequence: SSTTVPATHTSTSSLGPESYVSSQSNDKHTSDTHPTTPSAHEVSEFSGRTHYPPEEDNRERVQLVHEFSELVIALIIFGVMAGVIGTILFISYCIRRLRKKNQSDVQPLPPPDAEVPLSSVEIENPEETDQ
Procedure: as §1

[5] = biological target: T5, recombinant human GPA ectodomain (human, UniProt P02724 20-91); test: SPR, IgG
T5 construct: also called recombinant hGPA ECD; recGPA
T5 sequence: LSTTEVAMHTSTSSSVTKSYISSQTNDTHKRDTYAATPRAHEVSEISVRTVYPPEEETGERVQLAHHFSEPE

[6] = biological target: T2, human glycophorin A in the red blood …; test: FACS, RBC Hu03
Procedure: as §1

[7] = biological target: T6, Cynomolgus monkey glycophorin A on Cynomolgus monkey red blood cells (Cynomolgus monkey); test: FACS, RBC Cy01
T6 construct: whole, on cells; also called Cyno RBC; Cyno GPA
Procedure: as §1

[8] = biological target: T4, Rhesus monkey glycophorin A on Rhesus …; test: FACS, RBC Rh01
Procedure: as §1

[9] = biological target: T2, human glycophorin A in the red blood …; test: FACS, hu RBC
Procedure: (§2) Hybridomas were generated from the spleen cells of these mice and these hybriomas were screened first by fluorescence activated cell sorting (FACS) against isolated human and monkey (Cynomolgus monkey and Rhesus monkey) red blood cells (RBC) and then by ELISA against purified human glycophorin A protein (GPA). Isolated RBC were prepared from whole blood from normal human, cynomolgus monkey, and beagle dog, were anticoagulant with sodium heparin (Bioreclamation). 2-3 mL of whole blood was loaded gently on the top of 3 mL Ficoll Plus (Sigma Aldrich) then centrifuged at 500 g for 20 min at room temperature (RT). The RBC pellets were washed 3 times with 10 mL of PBS, and centrifuge 400 g for 10 min at RT. RBC pellets were re-suspended in PBS at the same total volume as the original blood volume to achieve the same RBC cell density as in whole blood and stored at 4° C. Purified human glycophorin A protein was obtained from Sigma Aldrich and coated on ELISA plates at 2 ug/ml. Binding of antibodies to human GPA was detected using appropriate secondary antibodies using methods well known in the art.

[10] = biological target: T6, Cynomolgus monkey glycophorin A on …; test: FACS, RBC Cy02
Procedure: as §1

[11] = biological target: T2, human glycophorin A in the red blood …; test: FACS, RBC Hu01
Procedure: as §1

[12] = biological target: T4, Rhesus monkey glycophorin A on Rhesus …; test: FACS, RBC Rh02
[13] = biological target: T3, purified human glycophorin A protein …; test: ELISA, IgG
[14] = biological target: T6, Cynomolgus monkey glycophorin A on …; test: FACS, Cyno RBC
Procedure: as §2

[15] = biological target: T5, recombinant human GPA ectodomain; test: ELISA, purified IgG
Procedure: (§3) The “Sigma GPA” is a crude preparation of human GPA extracted from human red blood cells and is therefore representative of the highly glycosylated form of the native protein.
(§4) EC 50 values were determined from a dilution curve of the antibody. Sigma GPA is partially purified GPA extracted from human red blood cells and purchased from Sigma Chemical Company (cat # G5017), asialo hGPA is human GPA that was desialylated and ECD is the recombinantly expressed ectodomain which is the extracellular portion of GPA.

[16] = biological target: T3, purified human glycophorin A protein …; test: ELISA, purified IgG
Procedure: as §3, §4

[17] = biological target: T7, asialo hGPA (desialylated human GPA) (human, UniProt P02724 20-150, desialylated); test: ELISA, purified IgG
T7 construct: mature; also called asialo-GPA
T7 sequence (looked up): T2 sequence (looked up)
Procedure: as §3, §4

dog red blood cells [18] = biological target: T8, dog red blood cells (dog); test: FACS, dog RBC
T8 construct: also called dog RBC
Procedure: as §2

GP5-18 = biological target: T9, GP5-18 (human, biotin at the N-terminus); test: ELISA, biotin-peptide on streptavidin plate, Fab 1 ug/ml
T9 construct: GP5 with alanine at position 18 (G18A), already in the entry
T9 peptide: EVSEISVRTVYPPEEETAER

GP5-10 = biological target: T10, GP5-10 (human, biotin at the N-terminus); test: as above
T10 construct: GP5 with alanine at position 10 (V10A), already in the entry
T10 peptide: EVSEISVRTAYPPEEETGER

GP5-11 = biological target: T11, GP5-11 (human, biotin at the N-terminus); test: as above
T11 construct: GP5 with alanine at position 11 (Y11A), already in the entry
T11 peptide: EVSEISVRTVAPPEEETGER

GP5-3 = biological target: T12, GP5-3 (human, biotin at the N-terminus); test: as above
T12 construct: GP5 with alanine at position 3 (S3A), already in the entry
T12 peptide: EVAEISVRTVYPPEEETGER

GP5-16 = biological target: T13, GP5-16 (human, biotin at the N-terminus); test: as above
T13 construct: GP5 with alanine at position 16 (E16A), already in the entry
T13 peptide: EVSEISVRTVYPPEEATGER

GP5-12 = biological target: T14, GP5-12 (human, biotin at the N-terminus); test: as above
T14 construct: GP5 with alanine at position 12 (P12A), already in the entry
T14 peptide: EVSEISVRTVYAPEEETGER

GP5-20 = biological target: T15, GP5-20 (human, biotin at the N-terminus); test: as above
T15 construct: GP5 with alanine at position 20 (R20A), already in the entry
T15 peptide: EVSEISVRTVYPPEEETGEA

GP5-14 = biological target: T16, GP5-14 (human, biotin at the N-terminus); test: as above
T16 construct: GP5 with alanine at position 14 (E14A), already in the entry
T16 peptide: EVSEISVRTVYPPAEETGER

GP5-4 = biological target: T17, GP5-4 (human, biotin at the N-terminus); test: as above
T17 construct: GP5 with alanine at position 4 (E4A), already in the entry
T17 peptide: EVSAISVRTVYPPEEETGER

GP5-1 = biological target: T18, GP5-1 (human, biotin at the N-terminus); test: as above
T18 construct: GP5 with alanine at position 1 (E1A), already in the entry
T18 peptide: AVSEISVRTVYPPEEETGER

GP5-15 = biological target: T19, GP5-15 (human, biotin at the N-terminus); test: as above
T19 construct: GP5 with alanine at position 15 (E15A), already in the entry
T19 peptide: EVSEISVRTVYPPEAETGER

GP5-6 = biological target: T20, GP5-6 (human, biotin at the N-terminus); test: as above
T20 construct: GP5 with alanine at position 6 (S6A), already in the entry
T20 peptide: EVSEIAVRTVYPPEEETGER

GP5-2 = biological target: T21, GP5-2 (human, biotin at the N-terminus); test: as above
T21 construct: GP5 with alanine at position 2 (V2A), already in the entry
T21 peptide: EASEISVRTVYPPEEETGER

GP5-19 = biological target: T22, GP5-19 (human, biotin at the N-terminus); test: as above
T22 construct: GP5 with alanine at position 19 (E19A), already in the entry
T22 peptide: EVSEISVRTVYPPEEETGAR

GP5-9 = biological target: T23, GP5-9 (human, biotin at the N-terminus); test: as above
T23 construct: GP5 with alanine at position 9 (T9A), already in the entry
T23 peptide: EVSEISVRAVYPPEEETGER

GP5-13 = biological target: T24, GP5-13 (human, biotin at the N-terminus); test: as above
T24 construct: GP5 with alanine at position 13 (P13A), already in the entry
T24 peptide: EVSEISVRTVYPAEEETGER

GP5-8 = biological target: T25, GP5-8 (human, biotin at the N-terminus); test: as above
T25 construct: GP5 with alanine at position 8 (R8A), already in the entry
T25 peptide: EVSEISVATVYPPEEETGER

GP5-17 = biological target: T26, GP5-17 (human, biotin at the N-terminus); test: as above
T26 construct: GP5 with alanine at position 17 (T17A), already in the entry
T26 peptide: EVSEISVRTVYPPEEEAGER

GP5-5 = biological target: T27, GP5-5 (human, biotin at the N-terminus); test: as above
T27 construct: GP5 with alanine at position 5 (I5A), already in the entry
T27 peptide: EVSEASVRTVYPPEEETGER

GP5-7 = biological target: T28, GP5-7 (human, biotin at the N-terminus); test: as above
T28 construct: GP5 with alanine at position 7 (V7A), already in the entry
T28 peptide: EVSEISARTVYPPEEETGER

[19] = biological target: T6, Cynomolgus monkey glycophorin A on …; test: FACS, Cyno #2 RBC
[20] = biological target: T6, Cynomolgus monkey glycophorin A on …; test: FACS, Cyno #1 RBC
[21] = biological target: T4, Rhesus monkey glycophorin A on Rhesus …; test: FACS, Rhesus RBC
[22] = biological target: T2, human glycophorin A in the red blood …; test: FACS, Human RBC
[23] = biological target: T6, Cynomolgus monkey glycophorin A on …; test: FACS, Cyno #3 RBC
[24] = biological target: T2, human glycophorin A in the red blood …; test: FACS, scFv-Fc
dog red blood cells [25] = biological target: T8, dog red blood cells; test: FACS, Dog RBC

B1: 6C12B8/H8 (antibody, V domains shown)
VH: RVQLQQSGAELARPGASVKMSCKASGYTFTTYTIHWVKQKTGQGLEWIGYINPSSDYTRYNPKFKDKATLTTDKSSSTAYMKLNSLASDDSAVYYCQTGTRDYWGQGTTLTVSS
VL: QIVLTQSPPIMSASPGEKVTMTCSAASSVSYIYWFQQKPGTSPKLWIYSTSTLPSGVPTRFSGSGSGTSYSLTISRMEAEDAATYYCHQRNSFPFTFGSGTKLEIR
notes: mouse IgG1/k from hybridoma; also called 6C12 parental; TPP-3422
**Q.** Does B1 bind (GP5 peptide)?
**A.** binds

**Q.** What about the “EC50 (read off the curve)” value [1] of the same binder?
**A.** ~0.06 µg/mL

**Q.** What about the EC50 [2] of the same binder?
**A.** 0.791 nM

**Q.** And the fluorescence intensity [3]?
**A.** 2540

**Q.** What about the fluorescence intensity [4] of the same binder?
**A.** 3180

**Q.** What about the Kd [5] of the same binder?
**A.** 2.98 nM

**Q.** And the koff [5]?
**A.** 0.00212 s⁻¹

**Q.** And the kon [5]?
**A.** 711000 M⁻¹ s⁻¹

**Q.** And the t½ [5]?
**A.** 5.4 min

**Q.** What about the fluorescence intensity [6] of the same binder?
**A.** 2680

**Q.** What about the fluorescence intensity [7] of the same binder?
**A.** 2570

**Q.** And the fluorescence intensity [8]?
**A.** 3780

**Q.** What about the FACS signal [9] of the same binder?
**A.** 3100 relative flourescence units

**Q.** And the fluorescence intensity [10]?
**A.** 2570

**Q.** And the fluorescence intensity [11]?
**A.** 3520

**Q.** And the fluorescence intensity [12]?
**A.** 3410

**Q.** And the EC50 [13]?
**A.** 0.326 nM

**Q.** What about the FACS signal [14] of the same binder?
**A.** 292 relative flourescence units

**Q.** And the EC50 [15]?
**A.** 0.59 nM

**Q.** What about the EC50 [16] of the same binder?
**A.** 0.64 nM

**Q.** And the EC50 [17]?
**A.** 0.69 nM

**Q.** And the FACS signal (dog red blood cells [18])?
**A.** 1.18 relative flourescence units

B2: TPP-5906 Fab (Fab, V domains shown)
VH: EVQLVQSGAEVKKPGASVKVSCKASGYTFTTYTIHWVRQAPGQGLEWMGYINPSSGYTRYNPKFKGRVTMTRDKSTSTAYMELRSLRSDDTAVYYCQTGTRDYWGQGTTVTVSS
VL: DIQLTQSPSFLSASVGDRVTITCRASSSVSYIYWFQQKPGKAPKLLIYATSTLQSGVPSRFSGSGSGTEYTLTISSLQPEDFATYYCHQRNSFPYTFGQGTKLEIKR
notes: also called parental humanized and germlined 6C12 Fab
**Q.** What does the source list for B2?
**A.** binding signal (ELISA) (GP5-18): 6290; binding signal (ELISA) (GP5-10): 337; binding signal (ELISA) (GP5-11): -1; binding signal (ELISA) (GP5-3): 6160; binding signal (ELISA) (GP5-16): 3390; binding signal (ELISA) (GP5-12): 282; binding signal (ELISA) (GP5-20): 6850; binding signal (ELISA) (GP5-14): 9; binding signal (ELISA) (GP5-4): 4840; binding signal (ELISA) (GP5-1): 5310; binding signal (ELISA) (GP5-15): 366; binding signal (ELISA) (GP5-6): 6370; binding signal (ELISA) (GP5-2): 6170; binding signal (ELISA) (GP5-19): 4580; binding signal (ELISA) (GP5-9): 7280; binding signal (ELISA) (GP5-13): 2000; binding signal (ELISA) (GP5-8): 7360; binding signal (ELISA) (GP5-17): 6250; binding signal (ELISA) (GP5-5): 6780; binding signal (ELISA) (GP5-7): 7180

B3: 1H5 scFv-Fc (Fc fusion)
scFv: QVQLQQSGAELARPGASVKMSCKASGYTFTSYSIHWIKQRPGQSLEWIGYINPNSDYANYNQKFKDKATLTTDKSSTTAYMQLSSLTTDDSAVYYCQTGTRDYWGQGTTLTVSSGGGGSGGGGSGGGGSDIVMTQSPSSLSVSAGEKVTMSCKSSQSLLNSGNQKNYLAWYQQKPGQPPKLLIYGASTRESGVPDRFTGSGSGTDFTLTISSVQAEDLAVYYCQNDHSYPYTFGGGTKLEIKGGGGAGGGGCKPCICTVPEVSSVFIFPPKPKDVLTITLTPKVTCVVVDISKDDPEVQFSWFVDDVEVHTAQTQPREEQFNSTFRSVSELPIMHQDWLNGKEFKCRVNSAAFPAPIEKTISKTKGRPKAPQVYTIPPPKEQMAKDKVSLTCMITDFFPEDITVEWQWNGQPAENYKNTQPIMDTDGSYFVYSKLNVQKSNWEAGNTFTCSVLHEGLHNHHTEKSLSHSPGK
notes: as m18
**Q.** Which FACS signal [19] does the source give for B3 here?
**A.** 1 Flourescent units

**Q.** And the FACS signal [20]?
**A.** 1 Flourescent units

**Q.** What about the FACS signal [21] of the same binder?
**A.** 1 Flourescent units

**Q.** And the FACS signal [22]?
**A.** 1 Flourescent units

**Q.** And the FACS signal [23]?
**A.** 1 Flourescent units

**Q.** Does B3 bind [24]?
**A.** no binding

**Q.** What about the FACS signal (dog red blood cells [25]) of the same binder?
**A.** 1 Flourescent units

Reference: patent US20190359687A1 (Bayer, published 2019)
